Source: a protein production outcome set (Wang et al. 2014)

Test: label from the status in PepcDB records

Sequence	protein production
MTKKTGFFKRLKALTLPQKQLFATALCQRMLPNYQLFSEVCEFGDPAVLSTALELLWQSLYDPKLKFNIDVHLQRLEDNTPEPADFEAYGVYPAMDAVVAISTLLGAIQGKIEEDIVNISKLSSSTVANYIEAISDVDLVDEALDDFVFAHEVMEEEKELQNSLLEIIEENPKITAELVKGLRKDIIETGVSNIGISVA	not failed
MKLNISAQSLNYTKYDNVIPSRDAILGLFDKVKSYLSYEQISHSSGLNDEPEKDALKKRLRAMERDGQLIFTRRKGYKRVDQSSLVTGKISIHVDGFGFLTYDDNEKDLFLPKHQLSHVFDGDIILVLKGHTQHQGRSNHRFIKIVERKTTHIVGLLKRKGSKLYLLPENSKLTQTIYVTPNELIAKNVGKLVHCKINTYPDYRQPTTVEVNEVLGRPGEAGIEVKLALRRHGINDKWDKDVLDAASAFGSQVEEKDKTSRVDYRDLPFVTIDGDDAKDFDDAVYGYQMDNGQWKLFVAIADVSHYVKPNDHLDLEAQSRATSVYFPGCVVPMLPESLSNGLCSLNPNEDRLVMVCEMTFDDEGNMLDSEFSEGIIHSHARLTYDDANRIIMQSSAKTTYQSNNPKNNIAQYLVNLHRLYLNLSGQRKVRGAIDFDTQELAFKLNNKKKIASIVPVVRNDAHRMIEEFMLCANVATAQFLELNKIPSLYRVHSGPQMKKLTSLRMLLAEKGLTLAGGDKPTSHDYNALLDQVRDLDECDIIRTLLLRSQSQAEYSPKNLGHFGLAYDAYAHFTSPIRRYPDLLIHRAIRAKLREKTTGKLRSLLMKLKPIRQLAGISNSYPYDTKEIEQLSVHCSHQSRQADEVSREVESALKCHYMKPFIGRNFMGSVSGVTHFGVFVELEENRIEGLIPLSSFQNGDFEFDAIKQKISSQTTTFTLGTQVNIIVKEIDSKQRKIIFNFA	failed
MVFFSVVVPTYNRRPILEKCLRALEQQQISAETAIAGYEVVVVDDGSTDGTVDWLKAQASEFPHVRLFEQDHQGPARARNLGVQQAQGDTIIFIDSDLVVTPPFLQAHATGLEKGRQRLGSDRCFTYGAVINTCNFDNPTAEPFKVTDFSNAYFATGNVAIARHWLETAGLFDTAFQLYGWEDLELGVRLKNLGLKLIRCPEAVGYHWHPPFSLEQIPKLIDQESQRGRMGVLFYQKHPTWEVRLMIQMTWLHRLLWGTLSLGGFLNERTLRPLLAWLLKRDRPQLALEIARIFLNWNNVRSVYAAYRESQGLASSLEHHHHHH	not failed
MHLNNLNNFNNLENNGEYHCSGPIIKKPFRHIALTVPSSDITNFNEIFYVEPQYIAQAIRLTNTFQGAIDPLTLNFNFEKALQIANGLPNAGVTGTINQSVIHQTIEVSVMISQIKEIIRSVLGLVINSANFWNSVVSAITNTFTNLEPQVDENWIVWRNLSATQTSYFYKILFSIQNEDTGRFMAILPIAFEITVDVQKQQLLFITIKDSARYEVKMKALTVVQALDSYNAPIIDVFNVRNYSLHRPNHNILQNLNVNPIKS	not failed
MDIKYKFPFALIIASAALVGCTSNQVKKEEAKPNPLPKLAQTQTQALVPIFSQSVSSMPKADPLRLQLDTLNGVIFVPDPKGKVSAYRGKERLWTTRVTKHRLTAGTVAGEGIVVVGNIKGELIALDQQTGQQKWKAQLTGAVLSPSLIYQGRVTTIANDGTVFAHDAETGQQVWTYKMPTIQFSLRGQPSPVMLDDRTVVVASANGYVYGIDVISGVPRFQRRVAVSEGRSDIQRLIDIDGDPVVSGQYLVTVSYQGQVTVTDLTNLSVVWNQDASSNKRPAVYDNKVFVAQADGKLTAYDLGTGSKLWESDVLLNRQLSNPVMLGKDLVVGDLDGVIHLINPDSGQLIGRAKTRGEVSSLRVVDGHLYTSTRKGALTIWEVR	failed
MSLTNTKTGFSVKDILDLPDTNDEEGSITGTEEDTEGSEATKTPGVLVQSPLENVQNLPLKNPFYDNSDNPYTRWLATTDSIQYSLHGLSANSQDTSAKSPEPSADESPDNDKETSSNGSDSGKKQKEGALFQGTNLRTRAPV	failed
MENIPFLRASTVPVIEYLDELKEIDASHIYTNYGPINQRFEQTIMSGFFQNRGAVTTVANATLGLMAAIQLKKRKKGKYALMPSFTFPATPLAAIWCGLEPYFIDISIDDWYMDKTVLWDKIEELKEEVAIVVPYATFGSWMNLEEYEELEKKGVPVVVDAAPGFGLMNGGMHYGQDFSGMIIYSFHATKPFGIGEGGLIYSKNEEDIQRIKRMGNFGFDTNRECTMMGFNCKMSEYAAAIGIATMKKWDDKLKERTRISEWYKQLLQSNGLMKKGWQLQKTEAVIQQFMPILCPEEVRNKQVIEDLKKQKIEARLYFSPSCHQQVLFRNYKSTDLTRTNKIAKRIVSLPLWEGMTKEIVEQIVICLGQKVVSADE	not failed
MTEEHVVLLDEQDKPSGTLEKYAAHTLNTPLHLAFSCWLFNEDGQLLVTRRSLSKKAWPGVWTNSVCGHPQQGETTEEAIIRRCRFELGVEITDLTPVYPHFSYRATDPNGIVENEVCPVFAARATSVLQVNSEEVMDYQWSEFKSVWKSLLATPWAFSPWMVMQASDEQARERLLNYCQR	not failed
MTYFASDFQDLDNSGNIENFIRCLELQQSLDLYKYYKQKTFEKMQLKPGDSVLEVGCGTGNDALLLANYVGETGKVTAVDRSQFMLDQARERAKNSTTKFEFVLADAEQLPFPGANFTAARVDRTLQHIAQPQKAIAEMARVVQSNGWVVAFEPDWETLVIDSDQRGVTRAITNFWCDNFPSGWVGRYLFKYFRQAGLTDIAVDPITICLTEFELADKILDLSRTVEKISEQGTISQNDLTLWFKAIDQNDQAGEFFCAFTAFLVRGRKP	failed
MSSQTILSVNNLSVSFTTNDGIVDAVKNVSFELQAGETLSIVGESGSGKSVSTNALMTLLPDNAIVHPDSSIMFEGESILDKTERQMQRIRGDRIGMIFQEPMTSLNPYMRVGIQVAEAMMCHRSVNQRKAKERVLELFDLVHLPNPQQAYDKYPHEFSGGQLQRIMIAMALINEPDILIADEPTTALDVTVQAEVLLLIKEIQAKMGMAILFITHDLGVVKHFADRVLVMCKGEVVEEGITEHLFSEPQHEYTKMLINSIPKGSKTPVDEKASELLNAEDIR	not failed
MKLLLTRPEGKNAAMASALDALAIPYLVEPLLSVEAAAVTQAQLDELSRADILIFISTSAVSFATPWLKDQWPKATYYAVGDATADALALQGITAERSPADSQATEGLLTLPSLEQVSGKQIVIVRGKGGREAMADGLRLRGANVSYLEVYQRACPPLDAPASVSRWQSFGIDTIVVTSGEVLENLINLVPKDSFAWLRDCHIIVPSARVETQARKKGLRRVTNAGAANQAAVLDALGM	not failed
MEELQYFPYEKFRPNQREFIEIVKEAVKRGENLIVEAPTGFGKTISVLAGVLPYAISLGYKVVYLARTHKQMDRVIEELRKIGEKSEVSGIEFRSRKDLCLHAYIQTFAQDAYTSMIVCKSLRKLGKCKYYENLKEKRDRVDEIVKFFLSFPPFPREVIEYSELLELCPYEITKKVGEKANVVVASYLYMISPPIRQAFLENLGVDYSDLIVIFDEAHNLPDQAISALSDRLSVRSIERAIKEAEEYGEKDIENFLSILLRGLEILYKEKLENYESEEIPIRPEEVFLHPASILGWRGRDIGMMLEDMIEVGDAIREDRIERNLPPRSYVGRVGEFLWNWLSLRDREDYLHLFTKEKGLALELVALDPSVALDFLEEVHSAIFMSGTLSPLEAFRDIIGVNARLKKFPRIVKRENAIVLVARDVSTRGIERSPPLYKRIAEYIFEAVKNTPKNVGVFTASYEVLEGVLSTNVHIKIEEEVGKKVFIEKKDAPSRENDEMIREFKEESKGKGAVLFGVMGGRNSEGQDYSGDEMNGVILVGIPYARPTPRVQAQTRYFEKKFPGKGRYYGYILPAHRKLAQAAGRVHRSENEKGSIVILDYRVLWKNVKKDLPDWMVETMIPVTLPTLRIKLRRFWRERLNE	failed
MHNFLIIGAFISLGILLRRFKALPEHTPFVLNKIAINVCLPALILLNAPKIAFTRDAVTAAIIPWALLALSVGLVLLGAKIWQWPRPVVGVLLLIVPLGNTSFLGVPIIRTFFGADGLPHLIVYDQIGTMMIFATYGSFILSLYGQDGTLSVSAVVRKMLLFPPSLALAAGLALKSWSYPDGLSLALHYLALPLVPVVMTAIGLQLRLRLPPHLAAPVGIGLGIKMLAAPLAVLVACRLVDMNGLAVGVSVVEAGMPPMVTAGALAVVAGMEAELAIALVGIGILCSFGSLPALFWLVSL	failed
